Reference: patent publication US20240173421A1 (Seagen, published 2024)
Like-named read-outs stand apart in the source and are kept apart here. Blank lines part the entries; values can stand above or below the binder they belong to.

How the values were obtained:
[1] = biological target: T1, CD16a (FcγRIIIa) on Jurkat NFAT reporter cells (UniProt P08637 17-254, limits assumed); assay: cell-based or functional assay
[2] = biological target: FcgRIa (NFAT activity assay) (UniProt P12314 16-374); assay: cell-based or functional assay
[3] = biological target: T2, FcgRIIa (NFAT activity assay) (UniProt P12318 34-317); assay: cell-based or functional assay
T2 sequence (looked up): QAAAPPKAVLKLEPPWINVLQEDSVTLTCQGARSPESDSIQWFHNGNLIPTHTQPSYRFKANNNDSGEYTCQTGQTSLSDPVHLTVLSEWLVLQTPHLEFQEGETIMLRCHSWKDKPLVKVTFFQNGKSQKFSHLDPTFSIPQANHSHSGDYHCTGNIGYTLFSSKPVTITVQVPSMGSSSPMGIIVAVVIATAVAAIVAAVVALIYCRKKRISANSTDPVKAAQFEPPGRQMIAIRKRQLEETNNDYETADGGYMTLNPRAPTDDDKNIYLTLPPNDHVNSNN

FcgRIIb = biological target: T3, FcgRIIb (human, UniProt P31994 43-217, biotinylated); assay: BLI, FcγR-monomeric Fc fusion on streptavidin sensor
T3 sequence (looked up): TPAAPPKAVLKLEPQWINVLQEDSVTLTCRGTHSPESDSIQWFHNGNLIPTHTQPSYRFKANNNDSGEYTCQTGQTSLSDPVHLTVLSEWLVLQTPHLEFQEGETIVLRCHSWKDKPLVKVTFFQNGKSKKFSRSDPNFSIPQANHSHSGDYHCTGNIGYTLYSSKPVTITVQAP

[4] = biological target: T1, CD16a (FcγRIIIa) on Jurkat NFAT …; assay: cell-based or functional assay; remark: listed apart in the source
[5] = biological target: T1, CD16a (FcγRIIIa) on Jurkat NFAT …; assay: cell-based or functional assay; remark: listed apart in the source
[6] = biological target: T1, CD16a (FcγRIIIa) on Jurkat NFAT …; assay: cell-based or functional assay; remark: listed apart in the source
[7] = biological target: T1, CD16a (FcγRIIIa) on Jurkat NFAT …; assay: cell-based or functional assay; remark: listed apart in the source
[8] = biological target: T1, CD16a (FcγRIIIa) on Jurkat NFAT …; assay: cell-based or functional assay; remark: listed apart in the source
[9] = biological target: T1, CD16a (FcγRIIIa) on Jurkat NFAT …; assay: cell-based or functional assay; remark: listed apart in the source

Sequence of FcgRIa (NFAT activity assay) (P12314 16-374): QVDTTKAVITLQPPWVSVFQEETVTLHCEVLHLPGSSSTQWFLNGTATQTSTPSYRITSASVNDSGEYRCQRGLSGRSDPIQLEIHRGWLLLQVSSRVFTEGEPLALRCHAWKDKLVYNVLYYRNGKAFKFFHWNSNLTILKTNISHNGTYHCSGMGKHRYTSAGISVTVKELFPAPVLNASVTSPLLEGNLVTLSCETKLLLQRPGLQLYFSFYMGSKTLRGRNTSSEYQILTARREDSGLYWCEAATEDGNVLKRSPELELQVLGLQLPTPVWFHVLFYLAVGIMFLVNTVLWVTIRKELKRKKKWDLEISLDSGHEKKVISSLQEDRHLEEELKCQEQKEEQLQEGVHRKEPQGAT
T1 sequence (P08637 17-254 limits assumed): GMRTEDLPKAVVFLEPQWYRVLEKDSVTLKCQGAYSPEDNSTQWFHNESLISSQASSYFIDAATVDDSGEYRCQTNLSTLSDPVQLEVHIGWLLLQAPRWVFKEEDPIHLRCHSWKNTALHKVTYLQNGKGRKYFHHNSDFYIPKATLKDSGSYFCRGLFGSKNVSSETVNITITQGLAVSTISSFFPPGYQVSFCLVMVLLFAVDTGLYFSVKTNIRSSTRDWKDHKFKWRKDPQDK

B2: Anti-CD40-AF-1(6) (antibody, human IgG1, kappa)
heavy: not shown
light: DIQMTQSPSSLSASVGDRVTITCRSSQSLVHSNGNTFLHWYQQKPGKAPKLLIYTVSNRFSGVPSRFSGSGSGTDFTLTISSLQPEDFATYFCSQTTHVPWTFGQGTKVEIKRTVAAPSVFIFPPSDEQLKSGTASVVCLLNNFYPREAKVQWKVDNALQSGNSQESVTEQDSKDSTYSLSSTLTLSKADYEKHKVYACEVTHQGLSSPVTKSFNRGEC
modifications: afucosylated N-glycan; compound 1 (disulfide-PEG12) on reduced interchain-disulfide cysteines, 6 per antibody, sites not stated
notes: 6 BPM per antibody; also called Anti-CD40-AF-1 6-load
Kd (FcgRIIb): 25 µM

B4: Anti-CD40-AF-1(2) (antibody, human IgG1, kappa)
heavy: not shown
light: B2 light
modifications: afucosylated N-glycan; compound 1 (disulfide-PEG12) on reduced interchain-disulfide cysteines, 2 per antibody, sites not stated
notes: 2 BPM per antibody; also called Anti-CD40-AF-1 2-load
EC50 (read off the curve), FcγRIIIa NFAT reporter assay [5]: ~0.003 µg/mL
Kd (FcgRIIb): 21 µM

B5: Anti-CD40-AF-1(4) (antibody, human IgG1, kappa)
heavy: not shown
light: B2 light
modifications: afucosylated N-glycan; compound 1 (disulfide-PEG12) on reduced interchain-disulfide cysteines, 4 per antibody, sites not stated
notes: 4 BPM per antibody; also called Anti-CD40-AF-1 4-load
Kd (FcgRIIb): 22 µM

B7: Anti-CD40-AF (afucosylated) (antibody, human IgG1, kappa)
heavy: not shown
light: B2 light
EC50, NFAT activity assay [1]: 0.05 µg/mL
EC50, NFAT activity assay [2]: 0.07 µg/mL
EC50, NFAT activity assay [3]: 0.09 µg/mL
EC50 (read off the curve), FcγRIIIa NFAT reporter assay [6]: ~0.001 µg/mL
EC50 (read off the curve), FcγRIIIa NFAT reporter assay [7]: ~0.001 µg/mL
EC50 (read off the curve), FcγRIIIa NFAT reporter assay [5]: ~0.01 µg/mL
EC50 (read off the curve), FcγRIIIa NFAT reporter assay [4]: ~0.01 µg/mL
EC50 (read off the curve), CD16a NFAT reporter assay [8]: ~0.003 µg/mL

B8: Anti-CD40-AF-9(8) (antibody, human IgG1, kappa)
heavy: not shown
light: B2 light
modifications: reduced interchain-disulfide cysteine carries compound 9; afucosylated N-glycan; reduced interchain-disulfide cysteines carry compound 9 (maleimidopropionyl-PEG12)
EC50, NFAT activity assay [1]: 0.22 µg/mL
EC50, NFAT activity assay [2]: 0.35 µg/mL
EC50, NFAT activity assay [3]: 14.3 µg/mL

B11: Anti-CD40-AF-1(8) (antibody)
heavy: not shown
light: B2 light
modifications: reduced interchain-disulfide cysteine carries compound 1; afucosylated N-glycan; reduced interchain-disulfide cysteines carry compound 1 (disulfide-PEG12)
EC50 (read off the curve), FcγRIIIa NFAT reporter assay [9]: ~0.007 µg/mL

Continued, values first:

EC50, NFAT activity assay [1]: 0.16 µg/mL
EC50, NFAT activity assay [2]: 0.09 µg/mL
EC50, NFAT activity assay [3]: 0.08 µg/mL
B1: Anti-CD40-WT (antibody, human IgG1, kappa)
heavy: not shown
light: B2 light

EC50 (read off the curve), FcγRIIIa NFAT reporter assay [4]: ~0.002 µg/mL
B3: Anti-CD40-AF-12 with 4 load (antibody, human IgG1, kappa)
heavy: not shown
light: B2 light
modifications: afucosylated N-glycan; compound 12 (maleimidocaproyl-PEG12) on reduced interchain-disulfide cysteines, 4 per antibody, sites not stated

EC50 (read off the curve), FcγRIIIa NFAT reporter assay [6]: ~0.007 µg/mL
B6: Anti-CD40-AF-17 (antibody, human IgG1, kappa)
heavy: not shown
light: B2 light
modifications: reduced interchain-disulfide cysteine carries compound 17; afucosylated N-glycan; reduced interchain-disulfide cysteines carry compound 17 (maleimidocaproyl-(PEG4)2)

EC50, NFAT activity assay [1]: 2.09 µg/mL
EC50, NFAT activity assay [2]: 3.73 µg/mL
EC50, NFAT activity assay [3]: 227 µg/mL
B9: Anti-CD40-AF-10 (antibody, human IgG1, kappa)
heavy: not shown
light: B2 light
modifications: reduced interchain-disulfide cysteine carries compound 10; afucosylated N-glycan; reduced interchain-disulfide cysteines carry compound 10 (maleimidopropionyl-PEG48)

EC50 (read off the curve), FcγRIIIa NFAT reporter assay [4]: ~0.001 µg/mL
B10: Anti-CD40-AF-12 with 2 load (antibody, human IgG1, kappa)
heavy: not shown
light: B2 light
modifications: afucosylated N-glycan; compound 12 (maleimidocaproyl-PEG12) on reduced interchain-disulfide cysteines, 2 per antibody, sites not stated
